Assay [1] concerns the target T1, E. coli K-12 BamA β-barrel (residues 421–810), N-terminally biotinylated (E. coli K-12 (strain MG1655), UniProt P0A940 421-810, biotin on the N-terminal Avitag (BirA ligase)). Briefly: SPR. Background: Surface plasmon resonance follows binding to a sensor surface in real time, without labels.
Assay [2] concerns the target T1, E. coli K-12 BamA β-barrel (residues …). Briefly: SPR. This is another data set of the same source.
For assay [3] the target is unchanged. Briefly: SPR; apparent, BamA pre-equilibrated with 2 uM darobactin.

Values joined by “and” are separate entries in the source; they are usually repeats but may differ in a detail not shown here. Identical values can stand only once. Ends that are not written are not given here.

The term koff denotes a measure of how fast the partners let go of each other. A higher koff goes with fast dissociation. Molecule WNWSKSF (also: post-translationally formed bicyclic ring structures) [darobactin] came in with a koff in assay [1] of 0.012 s⁻¹.

Consider FLWFYHRPVRGFDCG (also: cyclic peptide, closure not given here) [cyclic peptide CP1], for which the Kd is 6.6 nM and ~8 nM in assay [2]; approximately 5 nM in assay [3]. The molecule further yielded an off-rate constant (koff) in assay [1] of 0.0023 s⁻¹.

Values taken from PMC11986105 (2025).
